T1: SPM-1 beta-lactamase (Pseudomonas aeruginosa, UniProt Q8G9Q0 29-276)
T1 sequence: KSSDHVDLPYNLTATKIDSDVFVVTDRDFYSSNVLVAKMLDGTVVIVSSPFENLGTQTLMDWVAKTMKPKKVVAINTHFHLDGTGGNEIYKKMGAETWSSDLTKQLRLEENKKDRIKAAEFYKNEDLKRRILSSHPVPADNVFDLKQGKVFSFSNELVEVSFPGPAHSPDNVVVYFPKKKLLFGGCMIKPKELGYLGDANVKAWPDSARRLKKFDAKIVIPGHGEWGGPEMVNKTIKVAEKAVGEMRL


Legend:
[1] = target: T1, SPM-1 beta-lactamase; assay: EMSA
[2] = target: NDM-1 beta-lactamase (UniProt C7C422 29-270); assay: EMSA
[3] = target: VIM-1 beta-lactamase (UniProt A0A0F7KYQ8 21-266); assay: EMSA
[4] = target: IMP-1 beta-lactamase (UniProt P52699 19-246); assay: EMSA
[5] = target: T1, SPM-1 beta-lactamase; assay: NMR

Chain of NDM-1 beta-lactamase (C7C422 29-270): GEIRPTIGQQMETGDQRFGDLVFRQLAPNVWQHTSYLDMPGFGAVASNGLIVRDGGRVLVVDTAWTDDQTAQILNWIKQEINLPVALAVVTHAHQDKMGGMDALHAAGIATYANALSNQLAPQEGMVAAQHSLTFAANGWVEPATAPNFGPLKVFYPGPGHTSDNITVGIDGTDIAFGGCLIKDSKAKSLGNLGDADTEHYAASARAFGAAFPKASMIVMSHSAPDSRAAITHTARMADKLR
Chain of IMP-1 beta-lactamase (P52699 19-246): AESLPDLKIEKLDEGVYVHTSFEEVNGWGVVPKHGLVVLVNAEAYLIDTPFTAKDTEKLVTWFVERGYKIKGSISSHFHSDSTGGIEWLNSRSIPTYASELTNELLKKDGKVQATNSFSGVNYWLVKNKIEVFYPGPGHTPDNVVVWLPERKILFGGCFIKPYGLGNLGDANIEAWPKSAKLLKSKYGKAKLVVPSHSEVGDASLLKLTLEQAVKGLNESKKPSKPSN

Row | Binder | binding result [1] | binding result [2] | binding result [3] | binding result [4] | binding result [5]
1 | GGGAGAUGCUAGAGAUUCGGUGGGACACCCGUCUCCC (XNA, 2'-fluoro at all pyrimidines (C, U)) [S25 2'-FY] | binds | no binding | no binding | no binding | –
2 | GGGAGAUGCUAGAGAUUCGGUGGGACACCCUUCUCCC (structured_RNA) [S30 RNA (S25 G31U)] | – | – | – | – | binds
3 | GGGAGAUGCUAGAGAUUCGGUGGGACACCCGUCUCCC (structured_RNA) [S25 RNA] | – | – | – | – | binds

From publication doi:10.1101/2024.08.16.608213
